These results are taken from patent US20250075002A1.

In test [1] the target is human CD16B (NA1) on NK92mi cells (human) (UniProt O75015). Nature of the test: flow cytometry on NK92mi/CD16B (NA1) cells; control. A general note: In flow cytometry, cells or beads pass a laser one at a time.
For test [2], the target named is human CD16B (NA2) on NK92mi cells (human) (UniProt O75015). Nature of the test: flow cytometry on NK92mi/CD16B (NA2) cells; control.
Test [3] concerns the target human CD16A (V158) on NK92mi cells (human) (UniProt P08637). Briefly: flow cytometry on NK92mi/CD16A cells (V158 by paragraph 201); control.
Test [4] has as its target MUC1 as expressed on normal activated human T cells (human) (UniProt P15941). Nature of the test: FACS, PHA-L-activated human PBMC, live αβTCR+ gate, Donor 3011029; antibody 10 µg/mL by paragraph 182.
The target is the same in test [5]. Nature of the test: FACS, PHA-L-activated human PBMC, live αβTCR+ gate, Donor 3009223; antibody 10 µg/mL by paragraph 182.
The target is the same in test [6]. Nature of the test: FACS, PHA-L-activated human PBMC, live αβTCR+ gate, Donor 191180405C; antibody 10 µg/mL by paragraph 182.
The target is the same in test [7]. Nature of the test: FACS, PHA-L-activated human PBMC, live αβTCR+ gate, Donor 190980805C; antibody 10 µg/mL by paragraph 182.
Test [8] shares this target. Nature of the test: FACS, PHA-L-activated human PBMC, live αβTCR+ gate, Donor 3011029; concentration of the isotype control not told.
For test [9] the target is unchanged. Briefly: FACS, PHA-L-activated human PBMC, live αβTCR+ gate, Donor 3009223; concentration of the isotype control not told.
Test [10] shares this target. Briefly: FACS, PHA-L-activated human PBMC, live αβTCR+ gate, Donor 3011029; concentration of the isotype control not told. This is another data set of the same source.
For test [11] the target is unchanged. Briefly: FACS, PHA-L-activated human PBMC, live αβTCR+ gate, Donor 3009223; concentration of the isotype control not told. This is another data set of the same source.
The target is the same in test [12]. Nature of the test: FACS, PHA-L-activated human PBMC, live αβTCR+ gate, Donor 191271003C; concentration of the isotype control not told.
Test [13] shares this target. Nature of the test: FACS, PHA-L-activated human PBMC, live αβTCR+ gate, Donor 191271715C; concentration of the isotype control not told.
For test [14] the target is unchanged. Nature of the test: FACS, PHA-L-activated human PBMC, live αβTCR+ gate, Donor 191271003C; concentration of the isotype control not told. The source holds these as a separate data set.
Test [15] has the same target. Nature of the test: FACS, PHA-L-activated human PBMC, live αβTCR+ gate, Donor 191271715C; concentration of the isotype control not told. The source holds these as a separate data set.
Test [16] has the same target. Briefly: FACS, PHA-L-activated human PBMC, live αβTCR+ gate, Donor 191180405C; concentration of the isotype control not told.
The target is the same in test [17]. Briefly: FACS, PHA-L-activated human PBMC, live αβTCR+ gate, Donor 190980805C; concentration of the isotype control not told.
Test [18] shares this target. Nature of the test: FACS, PHA-L-activated human PBMC, live αβTCR+ gate, Donor 191180405C; concentration of the isotype control not told. The source holds these as a separate data set.
For test [19] the target is unchanged. Briefly: FACS, PHA-L-activated human PBMC, live αβTCR+ gate, Donor 190980805C; concentration of the isotype control not told. This is another data set of the same source.
Test [20] shares this target. Briefly: FACS, PHA-L-activated human PBMC, live αβTCR+ gate, Donor 191271003C; antibody 10 µg/mL by paragraph 182.
The target is the same in test [21]. Nature of the test: FACS, PHA-L-activated human PBMC, live αβTCR+ gate, Donor 191271715C; antibody 10 µg/mL by paragraph 182.

Chain of MUC1 as expressed on normal activated human T cells (human) (P15941 24-1255): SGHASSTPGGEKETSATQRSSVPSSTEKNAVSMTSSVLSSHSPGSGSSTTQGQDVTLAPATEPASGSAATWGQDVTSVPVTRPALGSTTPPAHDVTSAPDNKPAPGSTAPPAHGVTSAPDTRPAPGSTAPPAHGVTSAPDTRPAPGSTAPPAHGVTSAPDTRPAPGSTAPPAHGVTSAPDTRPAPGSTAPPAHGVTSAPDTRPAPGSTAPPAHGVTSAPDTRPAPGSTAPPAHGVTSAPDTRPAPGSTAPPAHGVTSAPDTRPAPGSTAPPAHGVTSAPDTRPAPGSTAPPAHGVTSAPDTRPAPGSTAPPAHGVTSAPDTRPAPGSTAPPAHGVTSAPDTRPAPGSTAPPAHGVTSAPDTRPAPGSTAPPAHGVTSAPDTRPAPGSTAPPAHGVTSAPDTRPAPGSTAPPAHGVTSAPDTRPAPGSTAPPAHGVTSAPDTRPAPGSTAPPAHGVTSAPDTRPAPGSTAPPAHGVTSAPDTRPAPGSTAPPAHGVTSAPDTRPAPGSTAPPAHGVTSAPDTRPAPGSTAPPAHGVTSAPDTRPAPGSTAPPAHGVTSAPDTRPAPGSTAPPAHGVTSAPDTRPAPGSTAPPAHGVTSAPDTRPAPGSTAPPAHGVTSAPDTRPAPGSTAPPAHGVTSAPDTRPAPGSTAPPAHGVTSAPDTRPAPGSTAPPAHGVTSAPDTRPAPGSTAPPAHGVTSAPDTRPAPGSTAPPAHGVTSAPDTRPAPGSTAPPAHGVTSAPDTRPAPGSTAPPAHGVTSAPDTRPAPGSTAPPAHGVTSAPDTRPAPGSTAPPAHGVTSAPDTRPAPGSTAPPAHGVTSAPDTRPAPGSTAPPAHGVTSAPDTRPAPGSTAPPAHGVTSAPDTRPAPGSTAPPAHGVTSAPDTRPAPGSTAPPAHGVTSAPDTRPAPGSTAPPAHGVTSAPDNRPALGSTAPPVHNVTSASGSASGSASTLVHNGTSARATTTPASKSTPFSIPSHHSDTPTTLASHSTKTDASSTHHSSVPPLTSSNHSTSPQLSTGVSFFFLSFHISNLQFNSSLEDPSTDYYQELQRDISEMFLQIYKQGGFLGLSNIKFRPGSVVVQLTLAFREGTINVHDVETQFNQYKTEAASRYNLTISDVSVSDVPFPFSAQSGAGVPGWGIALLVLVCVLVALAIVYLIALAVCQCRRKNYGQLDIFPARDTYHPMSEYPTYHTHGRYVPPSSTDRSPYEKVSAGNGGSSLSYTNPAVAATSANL
Chain of human CD16A (V158) on NK92mi cells (human) (P08637 17-254 F176V limits assumed): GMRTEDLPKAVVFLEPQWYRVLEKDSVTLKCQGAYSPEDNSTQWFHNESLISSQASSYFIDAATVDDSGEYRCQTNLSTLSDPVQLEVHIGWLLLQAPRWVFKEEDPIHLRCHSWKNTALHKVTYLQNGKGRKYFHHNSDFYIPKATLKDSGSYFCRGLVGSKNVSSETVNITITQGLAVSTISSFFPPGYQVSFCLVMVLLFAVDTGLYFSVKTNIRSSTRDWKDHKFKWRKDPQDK
Chain of human CD16B (NA1) on NK92mi cells (human) (O75015 other isoform, or with tags, fused parts or gaps limits assumed): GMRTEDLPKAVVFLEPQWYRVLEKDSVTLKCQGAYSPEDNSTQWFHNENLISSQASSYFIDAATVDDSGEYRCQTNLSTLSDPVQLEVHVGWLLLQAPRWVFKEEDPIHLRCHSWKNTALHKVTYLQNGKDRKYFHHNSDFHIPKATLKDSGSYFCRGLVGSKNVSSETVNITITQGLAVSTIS
Chain of human CD16B (NA2) on NK92mi cells (human) (O75015 17-200 N65S limits assumed): as the sequence (O75015 other isoform, or with tags, fused parts or gaps limits assumed) above, with R20S, N49S, D66N, V90I counted along it

Broadly, the EC50 is the concentration that produces a half-maximal response. Lower therefore signals higher potency in that assay. As for “Human IgG (control column of Tables 10-12) (antibody)”, the EC50 in [1] is 10.3 µg/mL; in test [2] it was 0.314 µg/mL; in test [3], 0.0112 µg/mL. For the same substance, the EMAX in [1] stood at 7.46; in test [2], 7.66; in [3], 7.55.

Regarding “HMFG1 (Abcam, cat. #ab215670) (antibody)”, the percent of αβTCR+ cells in the MUC1-positive gate (dashed box) in [4] turned out to be 23.2%; in test [5] it was 10%; in test [6] it was 28.1%; in [7], 28.2%.

As to Isotype (antibody), the percent of αβTCR+ cells in the MUC1-positive gate (dashed box) in test [8] turned out to be 0.26%; in test [9], 1.17%; in [10], 0.36%; in test [11], 0.05%; in [12], 0.91%; in test [13], 1.04%. In addition, the percent of αβTCR+ cells in the MUC1-positive gate (dashed box) in [14] is 0.11%; in test [15] it was 0.04%; in test [16] it was 2.49%; in [17], 1.86%; in test [18], 0.29%; in test [19], 0.15%.

Take “16A (Biolegend, cat. #355608) (antibody)”: the percent of αβTCR+ cells in the MUC1-positive gate (dashed box) amounted to 16.9% in test [20] and 16.5% in test [21].
